Here are results for 6 molecules from patent US7462695B2, “Insect chymotrypsin and inhibitors thereof” (Hexima Limited, priority 2003, dated 2008).

The IC50 is the concentration that gives 50% inhibition.

One experiment concerns the target bovine chymotrypsin (Bos taurus, UniProt P00766). Briefly: Inhibition of bovine chymotrypsin. It counts as biochemical. Particulars: 100 ng bovine chymotrypsin, pH 10; for % Inhibition BC: at maximum concentration tested. As to the method: (§1) Several proteinase inhibitors were tested for their ability to inhibit the activity of the insensitive chymotrypsins. The buffer used for all assays was 500 mM CAPS, 75 mM NaCl, 2.5 mM MgCl2 at pH 10.

Experiment [1] addresses NaPI-insensitive chymotrypsins from H. punctigera (Helicoverpa punctigera, UniProt A0PGE0). Briefly: Inhibition of NaPI-insensitive chymotrypsin (gut extract depleted of trypsins and NaPI-sensitive chymotrypsins). In kind it is biochemical. Particulars: pH 10, 30 min preincubation at 30° C.; for % Inhibition Insensitive: at maximum concentration tested. As to the method:
The midgut was dissected from 100 fourth instar larvae and buffer soluble extracts were prepared. The gut extract was depleted of NaPI-sensitive proteases by passage through an affinity column composed of immobilized NAPI protein (C1, C2, T1-T4). […] This preparation of unbound material was used to study the pH optimum, substrate preference and effect of a range of proteinase inhibitors on the activity of the NaPI-insensitive proteinase. […] The best substrate for enzyme assays was determined using seven different commercial substrates.
as §1

The test system of experiment [2] is chymotrypsin activity in unfractionated gut extracts from H. punctigera. As to the kind of experiment: Chymotrypsin activity in unfractionated gut extracts with proteinase inhibitors (FIG. 3). It counts as biochemical, Helicoverpa punctigera. As to conditions: larvae raised on haricot bean diet without added proteinase inhibitors; substrate SAAPFpNA. The protocol:
FIG. 3 is a graphical representation showing the effect of various proteinase inhibitors on the chymotrypsin activity in unfractionated gut extracts from H. punctigera. Proteinase inhibitors were mixed with 1 μg of protein from an unfractionated gut extract before incubation with the chymotrypsin substrate N-succinyl-Ala-Ala-Pro-Phe-p-nitroanilide. Inhibition is expressed as a percentage of the total activity in the control samples.
Fourth-instar larvae were killed using ethyl-acetate prior the removal of individual gut which were then homogenized in a mortar and pestle in an equal amount [(w/v)] of 50 mM Tris-HCl, pH 8.0 containing 100 μM benzamidine. Insoluble material was removed by centrifugation at 20,000 rpm for 15 min at 4° C. and total protein concentration determined using the Bradford method (Bradford, Anal Biochem 72: 248-254, 1976) with reagents from BioRad and BSA as a standard.
Unfractionated gut extract containing approximately 1 μg of buffer soluble protein was added to 10 μL CAPS buffer (0.5 M, 3-[cyclohexylamino]-1-propane-sulfonic acid, pH 10) and made to a final volume of 100 μL in individual wells of a 96 well microtiter plate. Proteinase inhibitors were added over a range of concentrations and incubated for 15 min at 25° C. Bovine chymotrypsin (100 ng) was used as a positive control, both for activity and inhibition. The chromogenic artificial substrate SAAPFpNA (N-Succinyl-L-alanyl-L-alanyl-L-prolyl-L-phenylalanine 4-nitroanilide) was then added to a final concentration of 1 mM and hydrolysis of the substrate was measured at 405 nm using the SpectraMax 250 microtiter plate reader (Molecular Devices).

The subject of experiment [3] is chymotrypsin activity in gut extracts of H. punctigera larvae. As to the kind of experiment: Inhibition of chymotrypsin activity in individual larval gut extracts (FIG. 2F). In kind it is biochemical, Helicoverpa punctigera. As to conditions: 80 nM inhibitor; SAAPFpNA substrate. An excerpt: (§2) FIG. 2 is a graphical representation showing growth of H. punctigera larvae fed on either low protein haricot bean artificial diet or cotton leaf artificial diet, in the presence or absence of 0.26% (w/v) NaPIs. Weight gain (mg) was monitored for 21 days. […] (A) Growth of larvae. (B) Relative size of larvae at 21 days after feeding on cotton artificial diet, in the presence or absence of 0.26% NaPIs. […] (C) The effect of NaPIs on gut trypsin and chymotrypsin activity. When each H. punctigera larva reached the late fourth/early fifth instar stage of development, the gut was removed and gut extract prepared prior to assays for trypsin and chymotrypsin activity. […] Trypsin activity was determined using BApNA substrate and chymotrypsin activity with SAAPFpNA substrate. Units of activity are expressed as change in absorbance at 405 nm/min/mg gut extract protein (±standard deviation). […] Trypsin activity was determined using BApNA substrate and chymotrypsin activity with SAAPFpNA substrate. Units of activity are expressed as change in absorbance at 405 nm/min/mg faecal extract protein (±standard deviation). […] Frass extracts were analysed on 15% ((w/v)) SDS-PAGE and transferred to nitrocellulose. […] Units of activity are expressed as substrate hydrolysis at 405 nm/min/mg extract protein (±standard deviation). […] Trypsin activity was determined using BApNA substrate. […]

The subject of experiment [4] is trypsin activity in gut extracts of H. punctigera larvae. As to the kind of experiment: Inhibition of trypsin activity in individual larval gut extracts by T1 (FIG. 2F). In kind it is biochemical, Helicoverpa punctigera. Particulars: 80 nM inhibitor; BApNA substrate.
From the text: as §2

The test system of another experiment is H. armigera larvae. Briefly: Bioassay of H. armigera larvae on transgenic cotton expressing NaPI and StPotIA (FIG. 27). It counts as in vivo, Helicoverpa armigera. The protocol: FIG. 27 is a graphical representation showing growth of H. armigera larvae on transgenic cotton expressing NaPI and PotI. Transgenic cotton cv Coker 315 was used in bioassays with H. armigera. Thirty larvae were fed leaves of either the control untransformed Coker 315, transgenic line 1 (NaPI), transgenic line 2 (StpotIA) or transgenic plant 3 (NaPI×StPot1A). The weight of the larvae was measured at day 7 post-egg hatch. (A) Growth of larvae. At day 7, larvae fed leaves expressing NaPI were 86% of the weight of the control larvae fed untransformed leaves. Larvae fed leaves expressing StPotIA were 92% of the control and larvae fed leaves expressing both NAPI and StPotIA were 46% of the control. (B) The effect of ingestion of NAPI and PotI on gut trypsin and chymotrypsin activity. Gut from the larvae in each experiment were pooled and extracts prepared. All assays were performed in duplicate. Trypsin activity (black) was determined using BApNA substrate and chymotrypsin activity (grey) with SA2PFpNA substrate. Units of activity are expressed as change in absorbance at 405 nm/min/ug gut extract protein. Trypsin activity was reduced, relative to the control, in the extracts from larvae fed leaves expressing NaPI and NaPI+StPotIA. Chymotrypsin activity was elevated in extracts from larvae fed leaves expressing NAPI or NAPI+StPotIA and reduced in extracts from larvae fed StPotIA alone.
Two gene constructs (pHEX2 and pHEX6) were prepared for transformation of cotton (Gossypium hirsutum). pHEX2 consists of a 35S promoter driving the NaPI gene with a 35S terminator, inserted into the binary vector pBIN 19 (Bevan, Nucl. Acids Research, 12: 8711-8721, 1984). pHEX6 consists of a 35S promoter driving the StPotIA gene with a 35S terminator inserted into the binary vector pBIN 19.
Transgenic cotton was produced using the method of Umbek et al., Biotechnology, 5: 263-266, 1987) with modifications. Hypocotyl sections of cotton Cv Coker 315 were co-cultivated with Agrobacterium tumefaciens strain LBA 4404 containing the required binary vector. […]

Experiment [5] has as its system NaPI-insensitive chymotrypsins from H punctigera. Briefly: Inhibition of NaPI-insensitive chymotrypsins by StPotIA and StPotIB (FIG. 26). It counts as biochemical, Helicoverpa punctigera. The protocol: FIG. 26 is a graphical representation showing inhibition of NaPI-insensitive chymotrypsin by bacterially expressed StPotIA and StPotIB. Inhibition of the NAPI-insensitive chymotrypsin from the gut of H. punctigera with purified PotI. (A) substrate SA2PFpNA, development time 30 min, (B) substrate SA2PLpNA, 30 min incubation. Mix of PotI isoforms from potato tuber (circle), StPotIA (square), StPotIB (triangle).
The inhibitory activity of StPotIA and StPotIB against the NaPI-insensitive chymotrypsins from H punctigera was determined by preincubating the NaPI-insensitive protease (10 μL) with varying amounts of StPotIA and StPotIB (0-600 nM) in 133 mM CAPS buffer, pH 10.0 at 30° C. in 96 well microtitre plates. After the 30 min preincubation, the incubation was started by the addition of substrate (SA2PFpNA, SA2PLpNA or SA2PMpNA) to a final concentration of 1 mM in a final volume of 100 μL. Absorbance was measured at 405 nm after 30 or 60 min.

Chain of NaPI-insensitive chymotrypsins from H. punctigera (A0PGE0 entry or part of it): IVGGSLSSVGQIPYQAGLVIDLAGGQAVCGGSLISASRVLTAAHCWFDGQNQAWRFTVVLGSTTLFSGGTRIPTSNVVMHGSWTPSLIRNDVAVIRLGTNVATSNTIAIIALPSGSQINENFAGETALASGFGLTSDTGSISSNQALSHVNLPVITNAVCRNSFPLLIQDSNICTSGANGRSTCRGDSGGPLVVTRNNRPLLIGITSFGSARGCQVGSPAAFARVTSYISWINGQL

For the molecule `CC(=O)N[C@@H](CC(C)C)C(=O)N[C@@H](CC(C)C)C(=O)N[C@H](C=O)CCCNC(=N)N` [Leupeptin, reference compound], at bovine chymotrypsin, the 50% inhibitory concentration (IC50) is 2400 µM and the “% Inhibition BC” value was determined as 52%.

As for `O=S(=O)(F)Cc1ccccc1` [PMSF, phenylmethyl sulphonyl fluoride, reference compound], the “% Inhibition Insensitive” value in experiment [1] amounted to 100%.

Turning to “C1: 6 kDa chymotrypsin inhibitor monomer released from the N. alata PI precursor (SEQ ID NO:23) (DRICTNCCAGTKGCKYFSDDGTFVCEGESDPRNPKACTLNCDPRIAYGVCPRSEEKKN; listed as Nicotiana alata)”, the “inhibition of gut chymotrypsin activity” value in experiment [2] came out at 70%. The “inhibition of chymotrypsin activity, extracts of control larvae (in words)” value in experiment [3] is “did not inhibit chymotrypsin activity in the extracts of six control larvae and only partially inhibited the gut chymotrypsins in the rest of the controls”.

“T1: 6 kDa trypsin inhibitor monomer released from the N. alata PI precursor (SEQ ID NO:24) (DRICTNCCAGTKGCKYFSDDGTFVCEGESDPRNPKACPRNCDPRIAYGICPLAEEKKN; listed as Nicotiana alata)”: in experiment [4], the “inhibition of trypsin activity, extracts from NaPI-fed larvae” value is reported as “could not be inhibited” and the “inhibition of trypsin activity, extracts of control larvae” value is reported as “almost totally inhibited”.

B1: StPotIA: PotI homolog cloned from wounded potato leaf RNA, alanine at P1 site (SEQ ID NO:81); E. coli expressed, His-tagged (protein)
chain: MESKFAHIIVFFLLATSFETLMARKEGDGSEVIKLLKESESESWCKGKQFWPELIGVPTKLAKEIIEKENPSINDVPIILNGTPVPADFRCNRVRLFDNILGDVVQIPRVA
modifications: His tag; potato
notes: E. coli expressed, His-tagged
Regarding B1, the “larval weight as % of control larvae fed untransformed leaves” value in the experiment with H. armigera larvae (day 7 post-egg hatch, protein expressed in transgenic cotton leaves) is listed as 92%. For the same molecule, in the experiment on H. armigera larvae (expression in cotton leaves), the “effect on larval growth compared to the control (in words)” value is listed as “small inhibition of larval growth”. For the same molecule, the gut chymotrypsin activity result with H. armigera larvae (pooled gut extracts, SA2PFpNA) was “reduced”. The “inhibition of the NaPI-insensitive chymotrypsin (in words)” value in experiment [5] is “good inhibitors”. Further, the “inhibition of SA2PMpNA hydrolysis” value in experiment [5] (substrate SA2PMpNA) is listed as 40%.

B2: Bowman Birk: soybean Bowman Birk inhibitor, purchased from Sigma-Aldrich (protein, UniProt P01055 40-110, looked up)
Bowman-Birk type proteinase …: DDESSKPCCDQCACTKSNPPQCRCSDMRLNSCHSACKSCICALSYPAQCFCVDITDFCYEPCKPSEDDKEN
As for B2, in experiment [1], the “% Inhibition Insensitive” value stood at 100% and 0.24 µM corresponded to half-maximal inhibition (IC50). In addition, in the experiment with bovine chymotrypsin, it took 0.06 µM to reach half-maximal inhibition (IC50) and the “% Inhibition BC” value was 100%. Moreover, the “inhibition of gut chymotrypsin activity (in words)” value in experiment [2] is reported as “failed to abolish all the chymotrysin activity”.
